Values quoted from earlier work as cited in US6774099B1, “Dishwashing detergent compositions containing mixtures or crystallinity-disrupted surfactants” (The Procter & Gamble Company, priority 1999, dated 2004).

Settings: enzymes compared at 0.075 to 2.5 mg protein per liter

- lard stain removal efficiency, factor over the wild-type lipase: 4.4
B1: D96L: D96L lipolytic enzyme variant of the native lipase derived from Humicola lanuginosa (protein, UniProt O59952 23-291, looked up, variant D96L)
Lipase: EVSQDLFNQFNLFAQYSAAAYCGKNNDAPAGTNITCTGNACPEVEKADATFLYSFEDSGVGDVTGFLALDNTNKLIVLSFRGSRSIENWIGNLNFLLKEINDICSGCRGHDGFTSSWRSVADTLRQKVEDAVREHPDYRVVFTGHSLGGALATVAGADLRGNGYDIDVFSYGAPRVGNRAFAEFLTVQTGGTLYRITHTNDIVPRLPPREFGYSHSSPEYWIKSGTLVPVTRNDIVKIEGIDATGGNNQPNIPDIPAHLWYFGLIGTCL
